Earlier results on one substance are cited in PMC8494837.

The series addresses Ubiquitin (Homo sapiens) (UniProt P0CG47).

Chain of CXCR4 (P61073 whole entry): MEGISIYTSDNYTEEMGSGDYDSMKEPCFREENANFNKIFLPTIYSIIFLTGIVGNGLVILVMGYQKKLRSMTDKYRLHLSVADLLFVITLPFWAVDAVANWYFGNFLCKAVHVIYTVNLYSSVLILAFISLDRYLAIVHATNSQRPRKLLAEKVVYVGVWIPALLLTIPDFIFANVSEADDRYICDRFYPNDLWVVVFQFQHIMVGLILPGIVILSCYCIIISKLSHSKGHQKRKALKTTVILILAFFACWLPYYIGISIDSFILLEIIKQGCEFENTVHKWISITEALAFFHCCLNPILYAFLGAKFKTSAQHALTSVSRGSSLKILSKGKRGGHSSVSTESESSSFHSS

By Kd is commonly meant a measure of binding affinity in units of concentration. Regarding CXCR4 (from UniProt P61073), the Kd was 84 nM.
